Data: patent US20240010684A1 (Bayer, published 2024)
*1 amine or outer side, *2 acyl side, *3 side chain or, on linkers, in order; H or OH if unused. Bridges are numbered along the chain shown (N, C = ends). Where no end group is shown, it is not given here. [ ]: non-standard residue; d: D form. TTDS = 1,13-diamino-4,7,10-trioxatridecan-succinamic acid, O=C(CCC(=O)[*:2])NCCCOCCOCCOCCCN[*:1]; Oic = O=C(O)[C@@H]1C[C@@H]2CCCC[C@@H]2N1; Trx = NC[C@H]1CC[C@H](C(=O)O)CC1; tBuAla = CC(C)(C)C[C@H](N)C(=O)O; PEG4 = NCCOCCOCCOCCOCCC(=O)O; Pen = CC(C)(S)[C@H](N)C(=O)O; Orn = NCCC[C@H](N)C(=O)O; Dab = NCC[C@H](N)C(=O)O; Dap = NC[C@H](N)C(=O)O; Ahx = NCCCCCC(=O)O; Sar = CNCC(=O)O

T1: recombinant human MASP1 (amino acids 297-699, C-terminal His Tag) (human, UniProt P48740 297-699)
T1 sequence: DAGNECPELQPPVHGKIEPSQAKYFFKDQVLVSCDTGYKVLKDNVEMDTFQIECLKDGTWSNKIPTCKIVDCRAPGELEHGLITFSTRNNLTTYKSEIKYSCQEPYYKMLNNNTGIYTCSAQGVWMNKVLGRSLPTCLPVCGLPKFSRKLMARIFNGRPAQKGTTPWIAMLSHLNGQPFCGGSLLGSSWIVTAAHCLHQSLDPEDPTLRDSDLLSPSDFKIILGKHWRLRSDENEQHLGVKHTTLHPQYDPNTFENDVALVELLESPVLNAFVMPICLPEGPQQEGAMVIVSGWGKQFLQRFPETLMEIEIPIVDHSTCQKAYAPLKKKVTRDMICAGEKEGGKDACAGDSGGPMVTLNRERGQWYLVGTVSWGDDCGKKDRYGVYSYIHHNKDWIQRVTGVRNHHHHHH

B1: Example 90: E++GIC+SRSLP-(Oic)-I-(Pen)+-IPK++-NH2 (peptide)
peptide: EGICSRSLP[Oic]I[Pen]IPK-NH2
modifications: lactam 1-15; disulfide 4-12; also: TFA salt
B2: Example 91: E++GIC+SRSLP-(Oic)-I-(Pen)+-IPDK++-NH2 (peptide)
peptide: EGICSRSLP[Oic]I[Pen]IPDK-NH2
modifications: lactam 1-16; disulfide 4-12; also: TFA salt
B3: Example 79: (Ahx)**-aIC+SRSLP-(Oic)-I-(Pen)+-IPE++-NH2 (HCl Salt) (peptide)
peptide: [Ahx][dA]ICSRSLP[Oic]I[Pen]IPE-NH2
modifications: disulfide 4-12; lactam N-15; also: HCl salt
B4: Example 96: (Orn)**-GIC+SRS-((tBu)A)-PPI-(Pen)+-IP** (peptide)
peptide: cyclo([Orn]GICSRS[tBuAla]PPI[Pen]IP)
modifications: disulfide 4-12; also: TFA salt
B5: Example 81: (3-Azido-L-Alanine)++-GAIC+SRS-((tBu)A)-PPIC+IP-(L-Propargylglycine)++-NH2 (1,2,3-triazole-1,4-diyl) (peptide)
peptide: [3‑azido‑L‑alanine]GAICSRS[tBuAla]PPICIP[L‑propargylglycine]-NH2
modifications: triazole 1-16; disulfide 5-13; also: TFA salt
B6: Example 67: K++-IC+SRS-((tBu)A)-PPI-(Pen)+-I** (peptide)
peptide: KICSRS[tBuAla]PPI[Pen]I
modifications: lactam 1-C; disulfide 3-11; also: TFA salt
B7: Example 61: (Orn)++-AIC+SRS-((tBu)A)-PPI-(Pen)+-IPD++-NH2 (peptide)
peptide: [Orn]AICSRS[tBuAla]PPI[Pen]IPD-NH2
modifications: lactam 1-15; disulfide 4-12; also: TFA salt
B8: Example 85: (Dap)++-IC+SRSLP-(Oic)-I-(Pen)+-IP** (peptide)
peptide: [Dap]ICSRSLP[Oic]I[Pen]IP
modifications: lactam 1-C; disulfide 3-11; also: TFA salt
B9: Example 16: (Ahx)**-GIC+SRSLPPIC+IPd** (peptide)
peptide: cyclo([Ahx]GICSRSLPPICIP[dD])
modifications: disulfide 4-12; also: TFA salt
B10: Example 19: a**GGIC+SRSLPPIC+IPD** (peptide)
peptide: cyclo([dA]GGICSRSLPPICIPD)
modifications: disulfide 5-13; also: TFA salt
B11: Example 82: (Ahx)**-GAIC+SRSLP-(Oic)-I-(Pen)+-IPE++-NH2 (peptide)
peptide: [Ahx]GAICSRSLP[Oic]I[Pen]IPE-NH2
modifications: disulfide 5-13; lactam N-16; also: TFA salt
B12: Example 73: (Dap)**-(Dab)-IC+SRS-((tBu)A)-PPI-(Pen)+-I** (peptide)
peptide: cyclo([Dap][Dab]ICSRS[tBuAla]PPI[Pen]I)
modifications: disulfide 4-12; also: TFA salt
B13: Example 80: k++-IC+SRS-((tBu)A)-PPI-(Pen)+-I** (peptide)
peptide: [dK]ICSRS[tBuAla]PPI[Pen]I
modifications: lactam 1-C; disulfide 3-11; also: TFA salt
B14: Example 87: (Dap)**-IC+SRSLP-(Oic)-I-(Pen)+-IP** (peptide)
peptide: cyclo([Dap]ICSRSLP[Oic]I[Pen]IP)
modifications: disulfide 3-11; also: TFA salt
B15: Example 84: (Ahx)**-GaIC+SRSLP-(Oic)-I-(Pen)+-IPE++-NH2 (peptide)
peptide: [Ahx]G[dA]ICSRSLP[Oic]I[Pen]IPE-NH2
modifications: disulfide 5-13; lactam N-16; also: TFA salt
B16: Example 20: (Dap)++-GGIC+SRSLPPIC+IPD** (peptide)
peptide: [Dap]GGICSRSLPPICIPD
modifications: lactam 1-C; disulfide 5-13; also: TFA salt
B17: Example 71: (Orn)++-IC+SRS-((tBu)A)-PPI-(Pen)+-IP** (peptide)
peptide: [Orn]ICSRS[tBuAla]PPI[Pen]IP
modifications: lactam 1-C; disulfide 3-11; also: TFA salt
B18: Example 18: A**GGIC+SRSLPPIC+IPD** (peptide)
peptide: cyclo(AGGICSRSLPPICIPD)
modifications: disulfide 5-13; also: TFA salt
B19: Example 74: (Ahx)**-AIC+SRSLP-(Oic)-I-(Pen)+-IPE++-NH2 (peptide)
peptide: [Ahx]AICSRSLP[Oic]I[Pen]IPE-NH2
modifications: disulfide 4-12; lactam N-15; also: TFA salt
B20: Example 88: I**C+SRS-((tBu)A)-PPI-(Pen)+-IP** (HCl Salt) (peptide)
peptide: cyclo(ICSRS[tBuAla]PPI[Pen]IP)
modifications: disulfide 2-10; also: HCl salt
B21: Example 63: (TTDS)**-AIC+SRS-((tBu)A)-PPI-(Pen)+-IPD** (peptide)
peptide: cyclo([TTDS]AICSRS[tBuAla]PPI[Pen]IPD)
modifications: disulfide 4-12; also: TFA salt
B22: Example 14: (PEG3(16 atoms))**-GIC+SRSLPPIC+IPD** (peptide)
peptide: cyclo([PEG4]GICSRSLPPICIPD)
modifications: disulfide 4-12; also: TFA salt
B23: Example 66: (Orn)++-IC+SRS-((tBu)A)-PPI-(Pen)+-I** (peptide)
peptide: [Orn]ICSRS[tBuAla]PPI[Pen]I
modifications: lactam 1-C; disulfide 3-11; also: TFA salt
B24: Example 15: G**GIC+SRSLPPIC+IPD** (peptide)
peptide: cyclo(GGICSRSLPPICIPD)
modifications: disulfide 4-12; also: TFA salt
B25: Example 62: G**-(TXA)-GIC+SRS-((tBu)A)-PPI-(Pen)+-IPD++-NH2 (peptide)
peptide: G[Trx]GICSRS[tBuAla]PPI[Pen]IPD-NH2
modifications: disulfide 5-13; lactam N-16; also: TFA salt
B26: Example 65: (Orn)**-GIC+SRS-((tBu)A)-PPI-(Pen)+-I** (peptide)
peptide: cyclo([Orn]GICSRS[tBuAla]PPI[Pen]I)
modifications: disulfide 4-12; also: TFA salt
B27: Example 86: (Dap)++-(Dap)-IC+SRSLP-(Oic)-I-(Pen)+-IP** (peptide)
peptide: [Dap][Dap]ICSRSLP[Oic]I[Pen]IP
modifications: lactam 1-C; disulfide 4-12; also: TFA salt
B28: Example 94: (Ahx)**-GIC+SRSLPPIC+IPD** (HCl Salt) (peptide)
peptide: cyclo([Ahx]GICSRSLPPICIPD)
modifications: disulfide 4-12; also: HCl salt
B29: Example 78: k++-IC+SRS-((tBu)A)-PPI-(Pen)+-I** (HCl Salt) (peptide)
peptide: [dK]ICSRS[tBuAla]PPI[Pen]I
modifications: lactam 1-C; disulfide 3-11; also: HCl salt
B30: Example 97: (Dap)**-(Dap)-IC+SRS-((tBu)A)-PPI-(Pen)+-IP** (peptide)
peptide: cyclo([Dap][Dap]ICSRS[tBuAla]PPI[Pen]IP)
modifications: disulfide 4-12; also: TFA salt
B31: Example 83: (Ahx)**-GIC+SRSLP-(Oic)-I-(Pen)+-IPE++-NH2 (peptide)
peptide: [Ahx]GICSRSLP[Oic]I[Pen]IPE-NH2
modifications: disulfide 4-12; lactam N-15; also: TFA salt
B32: Example 77: (Ahx)**-((N-Me)G)-AIC+SRSLP-(Oic)-I-(Pen)+-IPE++-NH2 (peptide)
peptide: [Ahx][Sar]AICSRSLP[Oic]I[Pen]IPE-NH2
modifications: disulfide 5-13; lactam N-16; also: TFA salt
B33: Example 95: (Ahx)**-IC+SRSLP-(Oic)-IC+I** (peptide)
peptide: cyclo([Ahx]ICSRSLP[Oic]ICI)
modifications: disulfide 3-11; also: TFA salt
B34: Example 17: A**GGIC+SRSLPPIC+IPd** (peptide)
peptide: cyclo(AGGICSRSLPPICIP[dD])
modifications: disulfide 5-13; also: TFA salt

Tests used:
[1] = biological target: T1, recombinant human MASP1 (amino acids …); assay: cell-based or functional assay
[2] = biological target: recombinant human MASP2 (amino acids 297-686, C-terminal His Tag) (human, UniProt O00187 297-686); assay: cell-based or functional assay
recombinant human MASP2 (amino acids 297-686, C-terminal His Tag), sequence (O00187 other isoform, or with tags, fused parts or gaps limits assumed): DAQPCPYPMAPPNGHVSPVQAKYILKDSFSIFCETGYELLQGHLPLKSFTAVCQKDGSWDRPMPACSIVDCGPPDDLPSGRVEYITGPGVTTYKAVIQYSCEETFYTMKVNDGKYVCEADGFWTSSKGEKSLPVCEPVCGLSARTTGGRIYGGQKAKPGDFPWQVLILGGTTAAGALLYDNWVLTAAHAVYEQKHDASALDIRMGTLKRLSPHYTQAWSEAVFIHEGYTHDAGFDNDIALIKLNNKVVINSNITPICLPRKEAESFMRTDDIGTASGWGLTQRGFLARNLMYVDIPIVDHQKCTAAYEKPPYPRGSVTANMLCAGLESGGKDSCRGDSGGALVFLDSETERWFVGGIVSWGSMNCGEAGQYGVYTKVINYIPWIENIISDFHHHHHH

| Binder | human MASP1 IC50 [1] | human MASP2 IC50 [2] |
| --- | --- | --- |
| B1 | 9.8 nM | 110 nM |
| B2 | 29 nM | 71 nM |
| B3 | 22 nM | 45 nM |
| B4 | 23 nM | 400 nM |
| B5 | 18 nM | 230 nM |
| B6 | 3.25 nM | 150 nM |
| B7 | 3.1 nM | 310 nM |
| B8 | 1000 nM | 1000 nM |
| B9 | 150 nM | 370 nM |
| B10 | 49 nM | 210 nM |
| B11 | 69 nM | 700 nM |
| B12 | 42 nM | 430 nM |
| B13 | 11 nM | 6.8 nM |
| B14 | 46 nM | 700 nM |
| B15 | 15 nM | 87 nM |
| B16 | 55 nM | 110 nM |
| B17 | 21 nM | 24 nM |

| Binder | human MASP1 IC50 [1] | human MASP2 IC50 [2] |
| --- | --- | --- |
| B18 | 50 nM | 15 nM |
| B19 | 14 nM | 160 nM |
| B20 | 1000 nM | 1000 nM |
| B21 | 28 nM | 170 nM |
| B22 | 170 nM | 240 nM |
| B23 | 8.1 nM | 22 nM |
| B24 | 120 nM | 300 nM |
| B25 | 22 nM | 540 nM |
| B26 | 49 nM | 540 nM |
| B27 | 27 nM | 1000 nM |
| B28 | 120 nM | 130 nM |
| B29 | 10 nM | 7 nM |
| B30 | 5 nM | 760 nM |
| B31 | 18 nM | 91 nM |
| B32 | 11 nM | 210 nM |
| B33 | 100 nM | 110 nM |
| B34 | 26 nM | 88 nM |
